Reference: publication PMC7522779

Target: Pex14p-S266D, Gal4p fusion protein for yeast two-hybrid (S. cerevisiae) (UniProt P53112)
Assay: two-hybrid; liquid ß-galactosidase assay with 2-nitrophenyl β-D-galactopyranoside; GAL4 BD and AD fusions in strain PCY2 pex14Δ; triplicate measurements of three independent transformants

Sequence of UniProt P53112 (P53112 whole entry S266D, the tested form may be a part): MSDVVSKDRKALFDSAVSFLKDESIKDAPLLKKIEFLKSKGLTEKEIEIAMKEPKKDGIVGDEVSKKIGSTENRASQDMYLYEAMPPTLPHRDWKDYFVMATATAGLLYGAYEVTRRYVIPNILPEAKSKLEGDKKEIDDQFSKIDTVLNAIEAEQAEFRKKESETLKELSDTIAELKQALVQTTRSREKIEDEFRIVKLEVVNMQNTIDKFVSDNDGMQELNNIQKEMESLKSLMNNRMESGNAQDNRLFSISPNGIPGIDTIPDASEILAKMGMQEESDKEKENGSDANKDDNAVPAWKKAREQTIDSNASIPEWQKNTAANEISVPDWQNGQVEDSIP

- binding as percent of wild-type level (ß-galactosidase activity) (% of wild-type levels): < 50
Substance: Pex13p, Gal4p fusion protein for yeast two-hybrid (from UniProt P80667 1-386) (natural protein)
